Results from article PMC9694023.

Target: T1, endogenous IRF7 of HEK293 cells (human (endogenous in HEK293)), Q92985
T1 chain: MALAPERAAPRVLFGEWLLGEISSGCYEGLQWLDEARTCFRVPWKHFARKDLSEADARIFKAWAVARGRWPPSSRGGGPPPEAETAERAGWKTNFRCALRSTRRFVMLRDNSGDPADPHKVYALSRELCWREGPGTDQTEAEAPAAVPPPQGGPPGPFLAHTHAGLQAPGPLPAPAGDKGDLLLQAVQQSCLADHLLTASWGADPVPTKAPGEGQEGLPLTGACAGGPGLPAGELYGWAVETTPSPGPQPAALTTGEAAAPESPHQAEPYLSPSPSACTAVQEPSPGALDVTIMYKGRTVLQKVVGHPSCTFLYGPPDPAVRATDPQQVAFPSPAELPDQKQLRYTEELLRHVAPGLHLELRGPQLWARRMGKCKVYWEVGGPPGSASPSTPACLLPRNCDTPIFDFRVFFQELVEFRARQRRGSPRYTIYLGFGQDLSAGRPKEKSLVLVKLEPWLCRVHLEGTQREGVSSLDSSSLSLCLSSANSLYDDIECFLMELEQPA
Test: native gel or EMSA
Conditions: remark: other sources report otherwise

B1: endogenous IRF7 of HEK293 cells, Q92985 1-503 (natural protein)
chain: T1 chain
In the case of B1, the stoichiometry N is reported as 2.
